# According to the RNAGym collection of RNA variant scans (doi:10.1021/acssynbio.7b00057):
# B1: Pistol ribozyme (parent)
# chain: GGGUCGUUGUUCCAUAAUCGCGUGGAUAUGGCACGCAAGUUUCUACCGGGCACCGUAAAUGUCCGACUGGAGCCGUUCGGGCGGCUAUAAACAGACCUCAGGCCCGAAGCGUGGCGGCACCUGCCGCCGGUGGUAAAAAAGAUCGGAAGAGCACACGUCU
# Variants of: B1
# Test: aptazyme ON/OFF ratio, guanine; higher = stronger switching; co-transcriptional cleavage with and without guanine
row,Variant,aptazyme ON/OFF ratio
1,U7A U8A G9A U10C U11C C12A C13A,1.12
2,U7A U8A G9A U10C U11C C12A C13G,1.04
3,U7A U8A G9A U10C U11C C12A C13U,1.07
4,U7A U8A G9A U10C C12A C13G,1.03
5,U7A U8A G9A U10C C12A C13U,1
6,U7A U8A G9A U10C C12A C13A,1.13
7,U7A U8A G9A U10C U11C,1.03
8,U7A U8A G9A U10C U11A,1.22
9,U7A U8A G9A U10C U11G,1.14
10,U7A U8A G9A U10C U11C C12G C13A,1.08
11,U7A U8A G9A U10C U11C C12G C13U,1
12,U7A U8A G9A U10C U11C C12G C13G,1.07
13,U7A G9U U11C C12G C13U,1.12
14,U7A G9U U11C C12G C13A,1.11
15,U7A G9U U11C C12G C13G,1.12
16,U7A U8A C12G C13U,1.48
17,U7A U8A C12G C13G,1.35
18,U7A U8A C12G C13A,1.2
19,U7A U8A G9A U10A U11C C12U C13G,1.08
20,U7A U8A G9A U10A U11C C12U C13U,1.14
21,U7A U8A G9A U10A U11C C12U C13A,1.17
22,U7A U8A G9A U10C U11C C12U C13U,1.05
23,U7A U8A G9A U10C U11C C12U C13A,1.06
24,U7A U8A G9A U10C U11C C12U C13G,1.03

row,Variant,aptazyme ON/OFF ratio
1,U7A U8A G9A U11C C12G C13G,1.14
2,U7A U8A G9A U11C C12G C13A,1.1
3,U7A U8A G9A U11C C12G C13U,1.09
4,U7A G9U U11G C12A C13U,1.22
5,U7A G9U U11G C12A C13A,1.18
6,U7A G9U U11G C12A C13G,1.36
7,U7A U8A G9A U10G U11G C13U,1.07
8,U7A U8A G9A U10G U11G C13G,1.21
9,U7A U8A G9A U10G U11G C13A,1.19
10,U7A U8A G9A U10A U11C C12U,1.02
11,U7A U8A G9A U10A U11C C12A,1.24
12,U7A U8A G9A U10A U11C C12G,1.17
13,U7A U8A G9C C12A C13U,1.24
14,U7A U8A G9C C12A C13A,1.17
15,U7A U8A G9C C12A C13G,1.13
16,U7A U8A G9A U10C U11A C12G,1.1
17,U7A U8A G9A U10C U11A C12A,1.08
18,U7A U8A G9A U10C U11A C12U,1.17
19,U7A U8A G9A U10C U11C C13U,1.06
20,U7A U8A G9A U10C U11C C13A,1.01
21,U7A U8A G9A U10C U11C C13G,0.997
22,U7A G9U U11G C12G,1.15
23,U7A G9U U11G C12U,1.52
24,U7A G9U U11G C12A,1.11

row,Variant,aptazyme ON/OFF ratio
1,U7A U8A G9A U10A U11G C12U C13A,1.3
2,U7A U8A G9A U10A U11G C12U C13U,1.3
3,U7A U8A G9A U10A U11G C12U C13G,1.24
4,U7A U8A G9A U10A U11A C13U,1.3
5,U7A U8A G9A U10A U11A C13A,1.16
6,U7A U8A G9A U10A U11A C13G,1.17
7,U7A U8A G9A U11G,1.29
8,U7A U8A G9A U11C,1.03
9,U7A U8A G9A U11A,1.16
10,U7A U8A G9A C12A C13G,1.06
11,U7A U8A G9A C12A C13A,1.06
12,U7A U8A G9A C12A C13U,1.07
13,U7A U8A G9C C12U,1.26
14,U7A U8A G9C C12A,1.22
15,U7A U8A G9C C12G,1.1
16,U7A U8A G9A U10C C12G C13A,1.11
17,U7A U8A G9A U10C C12G C13U,1.08
18,U7A U8A G9A U10C C12G C13G,1.03
19,U7A G9U U11A C13U,1.1
20,U7A G9U U11A C13A,1.12
21,U7A G9U U11A C13G,1.08
22,U7A U8A G9A U11C C12U C13G,1.21
23,U7A U8A G9A U11C C12U C13U,1.08
24,U7A U8A G9A U11C C12U C13A,1.24

row,Variant,aptazyme ON/OFF ratio
1,U7A U8A G9A U10C C13G,1.04
2,U7A U8A G9A U10C C13A,1.13
3,U7A U8A G9A U10C C13U,1.09
4,U7A U8A G9A U10C U11A C12U C13A,1.1
5,U7A U8A G9A U10C U11A C12U C13G,1.16
6,U7A U8A G9A U10C U11A C12U C13U,1.03
7,U7A U8A G9C C13U,1.13
8,U7A U8A G9C C13G,1.03
9,U7A U8A G9C C13A,1.15
10,U7A U8A G9A U10G U11C C12U,1.05
11,U7A U8A G9A U10G U11C C12G,1.13
12,U7A U8A G9A U10G U11C C12A,1.26
13,U7A U8A G9A U10A C13U,1.17
14,U7A U8A G9A U10A C13A,1.12
15,U7A U8A G9A U10A C13G,1.05
16,U7A U8A G9A U10A U11C C12A C13G,1.14
17,U7A U8A G9A U10A U11C C12A C13A,1.2
18,U7A U8A G9A U10A U11C C12A C13U,1.24
19,U7A G9U U11C C13U,1.12
20,U7A G9U U11C C13A,1.15
21,U7A G9U U11C C13G,1.08
22,U7A U8A G9A U10G U11C C13U,1.03
23,U7A U8A G9A U10G U11C C13G,1.08
24,U7A U8A G9A U10G U11C C13A,1.08

row,Variant,aptazyme ON/OFF ratio
1,U7A U8A G9A U10G U11A C13G,1.03
2,U7A U8A G9A U10G U11A C13U,0.974
3,U7A U8A G9A U10G U11A C13A,1.01
4,U7A U8A G9A U10G U11C C12A C13U,1.19
5,U7A U8A G9A U10G U11C C12A C13G,1.14
6,U7A U8A G9A U10G U11C C12A C13A,1.17
7,U7A U8A G9A U10C U11A C12G C13G,1.11
8,U7A U8A G9A U10C U11A C12G C13A,1.08
9,U7A U8A G9A U10C U11A C12G C13U,1.1
10,U7A U8A G9A U11C C12A C13A,1.17
11,U7A U8A G9A U11C C12A C13U,1.22
12,U7A U8A G9A U11C C12A C13G,1.14
13,U7A U8A G9A U10A C12G,1.24
14,U7A U8A G9A U10A C12A,1.28
15,U7A U8A G9A U10A C12U,1.23
16,U7A U8A C13G,1.22
17,U7A U8A C13A,1.38
18,U7A U8A C13U,1.69
19,U7A U8A G9A U10G C13G,1.46
20,U7A U8A G9A U10G C13A,1.6
21,U7A U8A G9A U10G C13U,1.34
22,U7A G9U U11A C12U C13U,1.22
23,U7A G9U U11A C12U C13A,1.41
24,U7A G9U U11A C12U C13G,1.28

row,Variant,aptazyme ON/OFF ratio
1,U7A U8A G9C U10A C12A,1.2
2,U7A U8A G9A U11A C12G C13U,1.25
3,U7A U8A G9A U11A C12G C13A,1.14
4,U7A U8A G9A U11A C12G C13G,1.28
5,U7A U8A G9A U10G C12U,1.14
6,U7A U8A G9A U10G C12A,1.18
7,U7A U8A G9A U10G C12G,1.32
8,U7A U8A,2.94
9,U7A U8A G9A U10A C12U C13A,1.27
10,U7A U8A G9A U10A C12U C13G,1.19
11,U7A U8A G9A U10A C12U C13U,1.47
12,U7A U8A G9A U10A U11C C13A,1.05
13,U7A U8A G9A U10A U11C C13U,1.08
14,U7A U8A G9A U10A U11C C13G,1.06
15,U7A G9U U11G C13G,1.04
16,U7A G9U U11G C13U,1.31
17,U7A G9U U11G C13A,1.15
18,U7A U8A G9A U10G U11A C12A C13U,1.2
19,U7A U8A G9A U10G U11A C12A C13G,1.18
20,U7A U8A G9A U10G U11A C12A C13A,1.02
21,U7A U8A G9A U10A U11G C12U,1.19
22,U7A U8A G9A U10A U11G C12G,1.16
23,U7A U8A G9A U10A U11G C12A,1.04
24,U7A U8A G9A U10A U11G C13U,1.16

row,Variant,aptazyme ON/OFF ratio
1,U7A U8A G9A U10A U11G C13A,1.17
2,U7A U8A G9A U10A U11G C13G,1.18
3,U7A U8A G9A U10A U11C,1.04
4,U7A U8A G9A U10A U11A,1.15
5,U7A U8A G9A U10A U11G,1.29
6,U7A U8A C12A,1.76
7,U7A U8A C12G,1.41
8,U7A U8A C12U,1.59
9,U7A U8A G9A U11A C12U C13G,1.23
10,U7A U8A G9A U11A C12U C13U,1.22
11,U7A U8A G9A U11A C12U C13A,1.07
12,U7A U8A G9A U10C C12U C13U,1.19
13,U7A U8A G9A U10C C12U C13G,1.15
14,U7A U8A G9A U10C C12U C13A,1.01
15,U7A U8A G9A U11G C13U,1.29
16,U7A U8A G9A U11G C13G,1.14
17,U7A U8A G9A U11G C13A,1.15
18,U7A U8A G9A U10C U11G C12A,1.12
19,U7A U8A G9A U10C U11G C12U,1.11
20,U7A U8A G9A U10C U11G C12G,1.23
21,U7A U8A G9A U10A C12G C13G,1.15
22,U7A U8A G9A U10A C12G C13A,1.24
23,U7A U8A G9A U10A C12G C13U,1.28
